Test results: IntAct's records for PubMed 16154084

B1: Interferon regulatory factor 3 (Homo sapiens), Q14653 (parent)
chain: MGTPKPRILPWLVSQLDLGQLEGVAWVNKSRTRFRIPWKHGLRQDAQQEDFGIFQAWAEATGAYVPGRDKPDLPTWKRNFRSALNRKEGLRLAEDRSKDPHDPHKIYEFVNSGVGDFSQPDTSPDTNGGGSTSDTQEDILDELLGNMVLAPLPDPGPPSLAVAPEPCPQPLRSPSLDNPTPFPNLGPSENPLKRLLVPGEEWEFEVTAFYRGRQVFQQTISCPEGLRLVGSEVGDRTLPGWPVTLPDPGMSLTDRGVMSYVRHVLSCLGGGLALWRAGQWLWAQRLGHCHTYWAVSEELLPNSGHGPDGEVPKDKEGGVFDLGPFIVDLITFTEGSGRSPRYALWFCVGESWPQDQPWTKRLVMVKVVPTCLRALVEMARVGGASSLENTVDLHISNSHPLSLTSDQYKAYLQDLVEGMDFQGPGES

Variants of: B1
Conditions: with cbp_human CREBBP

Row | Variant | effect of a mutation on the interaction
1 | E201A;E203A | disrupting interaction
2 | S221A | disrupting interaction
3 | L322A;P324A;I326A;V327A;L329A;I330A | disrupting interaction
4 | C371A;L375A;M378A | disrupting interaction
